The numbers were not newly measured in article PMC8448686, which cites them from elsewhere.

In one data set the target is HER2 (Homo sapiens) (UniProt P04626). Kind of data set: LigandTracer.
A further data set deals with CD20 (Homo sapiens) (UniProt P11836). Briefly: LigandTracer.
Chain of UniProt P11836 (P11836 whole entry): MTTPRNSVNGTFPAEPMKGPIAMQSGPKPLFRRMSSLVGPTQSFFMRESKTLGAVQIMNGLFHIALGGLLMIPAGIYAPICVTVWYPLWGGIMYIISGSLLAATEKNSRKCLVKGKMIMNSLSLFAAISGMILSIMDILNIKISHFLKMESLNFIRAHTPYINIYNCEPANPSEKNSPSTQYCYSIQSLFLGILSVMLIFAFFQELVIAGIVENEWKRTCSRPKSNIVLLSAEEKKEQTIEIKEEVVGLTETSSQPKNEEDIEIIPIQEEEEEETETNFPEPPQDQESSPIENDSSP

On to Pertuzumab, for which the Kd – broadly, the free concentration of one partner at which half of the binding sites on the other are occupied at equilibrium, for simple one-to-one binding – with HER2 (Homo sapiens) was 0.13 nM.
On to Rituximab, for which, in the data set with CD20 (Homo sapiens), the Kd was 0.93 nM.
